Reference: paper PMC7058931, “DNA topoisomerase IIIβ promotes cyst generation by inducing cyst wall protein gene expression in Giardia lamblia”

Experiments:
[1] = target: T1, TOP3β (DNA topoisomerase IIIβ) (Giardia lamblia WB, UniProt A8B577 1-973); assay: EMSA; supershifted by anti-TOP3β; EMSA: 0.02 pmol 32P probe, 5 ng protein, 20 µl, 0.5 µg poly(dI-dC), 15 min at room temperature, 6% acrylamide gel; buffer, salt and pH not given (cited reference); conditions: protein: recombinant, tags: C-terminal V5 and His
T1 sequence: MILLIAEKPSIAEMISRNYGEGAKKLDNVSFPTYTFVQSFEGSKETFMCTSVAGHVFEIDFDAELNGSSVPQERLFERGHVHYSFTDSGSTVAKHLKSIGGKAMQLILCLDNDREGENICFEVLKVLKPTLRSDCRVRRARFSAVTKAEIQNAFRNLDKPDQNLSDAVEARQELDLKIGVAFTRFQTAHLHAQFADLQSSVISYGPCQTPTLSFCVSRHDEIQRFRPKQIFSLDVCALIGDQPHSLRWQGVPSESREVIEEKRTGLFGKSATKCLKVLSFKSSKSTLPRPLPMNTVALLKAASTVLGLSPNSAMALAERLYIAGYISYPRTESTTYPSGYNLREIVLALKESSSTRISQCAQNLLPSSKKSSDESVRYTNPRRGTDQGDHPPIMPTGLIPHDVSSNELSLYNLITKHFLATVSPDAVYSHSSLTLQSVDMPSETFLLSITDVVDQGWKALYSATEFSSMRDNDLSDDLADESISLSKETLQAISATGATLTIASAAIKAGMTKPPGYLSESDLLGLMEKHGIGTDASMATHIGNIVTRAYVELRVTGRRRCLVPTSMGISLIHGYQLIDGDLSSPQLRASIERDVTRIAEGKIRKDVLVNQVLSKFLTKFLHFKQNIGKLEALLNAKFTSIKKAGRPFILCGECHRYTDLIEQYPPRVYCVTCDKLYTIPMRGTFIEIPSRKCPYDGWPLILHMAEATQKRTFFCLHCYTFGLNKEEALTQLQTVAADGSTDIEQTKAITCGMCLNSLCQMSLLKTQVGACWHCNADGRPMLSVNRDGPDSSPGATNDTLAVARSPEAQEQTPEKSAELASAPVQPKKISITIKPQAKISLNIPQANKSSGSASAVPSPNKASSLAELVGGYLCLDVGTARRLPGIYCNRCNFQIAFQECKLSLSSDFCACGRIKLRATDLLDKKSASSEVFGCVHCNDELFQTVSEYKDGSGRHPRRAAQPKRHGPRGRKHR

[2] = target: T1, TOP3β (DNA topoisomerase IIIβ); assay: EMSA; EMSA: 0.02 pmol 32P probe, 5 ng protein, 20 µl, 0.5 µg poly(dI-dC), 15 min at room temperature, 6% acrylamide gel; buffer, salt and pH not given (cited reference); conditions: protein: recombinant, tags: C-terminal V5 and His
[3] = target: T1, TOP3β (DNA topoisomerase IIIβ); assay: EMSA; strong; EMSA: 0.02 pmol 32P probe, 5 ng protein, 20 µl, 0.5 µg poly(dI-dC), 15 min at room temperature, 6% acrylamide gel; buffer, salt and pH not given (cited reference); conditions: protein: recombinant; tags: C-terminal V5 and His; label: 5'-32P

B1: cwp1-45/-1 (dsDNA)
DNA 1: GTTTACAACTCTCAGATCAAGAAACACAGAAATAAAATATCAGGG
DNA 2: CCCTGATATTTTATTTCTGTGTTTCTTGATCTGAGAGTTGTAAAC
- binding result ([1]; label: 5'-32P): binds

Binder: GTTTACAACTCTCAGATCAAGAAACACAGAAATAAAATATCAGGG (ssDNA) [cwp1-45/-1F]
- binding result ([2]; label: 32P): binds

B2: 18S-30/-1 (dsDNA)
DNA 1: GGCGCCCGGCCCGCGGCGCCCGCGCCCGGC
DNA 2: GCCGGGCGCGGGCGCCGCGGGCCGGGCGCC
- binding result ([2]; label: 5'-32P): no binding

B3: ran-51/-20 (dsDNA)
DNA 1: TAAAATAAATTAAATCGAAATTAAAACTTTAA
DNA 2: TTAAAGTTTTAATTTCGATTTAATTTATTTTA
- binding result ([2]; label: 5'-32P): binds

B4: 18S-60/-31 (dsDNA)
DNA 1: CCGTGCCAGGCGGCGGCCCCCGCGCAGGGA
DNA 2: TCCCTGCGCGGGGGCCGCCGCCTGGCACGG
- binding result ([2]; label: 5'-32P): no binding

Binder: TAGACTGATGCTGTAGAGGTCAACAGATAA (ssDNA) [cwp2-60/-31F]
- binding result ([2]; label: 32P): binds

Binder: CTGGCTAACAGTCTACAGTCTACAATTTACAGTATACAATCTACA (ssDNA) [cwp1-90/-46F]
- binding result ([2]; label: 32P): binds

B5: cwp1-90/-46 (dsDNA)
DNA 1: CTGGCTAACAGTCTACAGTCTACAATTTACAGTATACAATCTACA
DNA 2: TGTAGATTGTATACTGTAAATTGTAGACTGTAGACTGTTAGCCAG
- binding result ([2]; label: 5'-32P): binds

B6: cwp2-60/-31 (dsDNA)
DNA 1: TAGACTGATGCTGTAGAGGTCAACAGATAA
DNA 2: TTATCTGTTGACCTCTACAGCATCAGTCTA
- binding result [3]: binds

Binder: GGCGCCCGGCCCGCGGCGCCCGCGCCCGGC (ssDNA) [18S-30/-1F]
- binding result ([2]; label: 32P): no binding

Binder: GTCTTTCCCAAAAAATAAGTTACTACTGATATGTTTTCTC (ssDNA) [cwp3-30/+10F]
- binding result ([1]; label: 32P): binds

B7: cwp3-30/+10 (dsDNA)
DNA 1: GTCTTTCCCAAAAAATAAGTTACTACTGATATGTTTTCTC
DNA 2: GAGAAAACATATCAGTAGTAACTTATTTTTTGGGAAAGAC
- binding result [3]: binds
